Measured values from US20100135951A1.

Target: TRAIL-R2 (human) (UniProt O14763)
Assay: cell-based or functional assay

Sequence of TRAIL-R2 (human) (O14763 other isoform, or with tags, fused parts or gaps limits assumed): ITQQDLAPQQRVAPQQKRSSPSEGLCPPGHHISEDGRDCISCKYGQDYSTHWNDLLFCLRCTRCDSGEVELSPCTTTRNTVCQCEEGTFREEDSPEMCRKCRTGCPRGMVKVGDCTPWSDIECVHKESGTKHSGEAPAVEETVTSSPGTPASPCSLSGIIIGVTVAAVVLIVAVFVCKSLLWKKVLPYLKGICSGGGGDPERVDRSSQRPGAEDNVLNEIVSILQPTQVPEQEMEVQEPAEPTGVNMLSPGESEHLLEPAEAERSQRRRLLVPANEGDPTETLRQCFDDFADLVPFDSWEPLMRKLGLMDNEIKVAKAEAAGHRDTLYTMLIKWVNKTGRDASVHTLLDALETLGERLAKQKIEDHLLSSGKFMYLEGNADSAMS

Question: How did the cell death (ATPLITE cell viability assay) turn out when TRA-8 (antibody) was run?
Answer: 100%
